Patent US20190352405A1 (I MAB BIOPHARMA US, published 2019)

How the values were obtained:
[1] = target: T1, recombinant PD-L1 protein (human PD-L1-his taq) (human, UniProt Q9NZQ7 19-238); experiment: SPR (Biacore T200), antibody captured by anti-human Fc on CM5 chip, PD-L1-his as analyte
T1 construct: also called human PD-L1-his taq protein; his-PDL1; not shown: his tag
Procedure: A series of dilutions of human PD-L1-his taq protein were injected over captured antibody for 3 mins at a flow rate of […]. The antigen was allowed to dissociate for 900s. All the experiments were carried out on a Biacore T200. Data analysis was carried out using Biacore T200 evaluation software.

[2] = target: T2, PD-L1 expressed on Raji cells (PDL1-Raji cells) (UniProt Q9NZQ7 19-290, limits assumed); experiment: FACS on PDL1-Raji cells, Alexa 488 anti-human IgG secondary antibody, MFI; the EC50 table has no unit, nM is taken from the x axis (Log [Conc.] / nM)
T2 construct: whole, on cells; also called mammalian expressed PD-L1
T2 sequence (Q9NZQ7 19-290 limits assumed): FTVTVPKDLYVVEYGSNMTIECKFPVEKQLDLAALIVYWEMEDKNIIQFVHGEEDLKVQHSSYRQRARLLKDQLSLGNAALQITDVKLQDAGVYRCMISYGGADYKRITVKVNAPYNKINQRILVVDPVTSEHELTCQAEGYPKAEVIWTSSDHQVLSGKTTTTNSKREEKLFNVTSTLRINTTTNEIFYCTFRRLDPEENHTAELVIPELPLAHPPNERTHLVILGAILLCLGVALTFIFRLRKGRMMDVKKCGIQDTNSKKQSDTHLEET
Procedure: After washing by FACS buffer (PBS with 2% FBS), the Alexa 488-anti-human IgG antibody was added to each well and incubated at RT for 1 hour. The MFI of Alexa 488 were evaluated by FACSAriaIII.

[3] = target: T3, IL7 receptor (IL7R) on human primary CD4+ T cells (human, UniProt P16871 21-459); experiment: FACS on human primary CD4+ T cells, 4 °C for 30 min, PE anti-human Fc secondary antibody, MFI; fit value printed for a nearly flat control curve; the EC50 column has no unit, nM is taken from the x axis (Log [Conc.] / nM)
T3 construct: whole, on cells; Native receptor on cells; also called surface IL7R; CD127 (IL7Ra)
T3 sequence (looked up): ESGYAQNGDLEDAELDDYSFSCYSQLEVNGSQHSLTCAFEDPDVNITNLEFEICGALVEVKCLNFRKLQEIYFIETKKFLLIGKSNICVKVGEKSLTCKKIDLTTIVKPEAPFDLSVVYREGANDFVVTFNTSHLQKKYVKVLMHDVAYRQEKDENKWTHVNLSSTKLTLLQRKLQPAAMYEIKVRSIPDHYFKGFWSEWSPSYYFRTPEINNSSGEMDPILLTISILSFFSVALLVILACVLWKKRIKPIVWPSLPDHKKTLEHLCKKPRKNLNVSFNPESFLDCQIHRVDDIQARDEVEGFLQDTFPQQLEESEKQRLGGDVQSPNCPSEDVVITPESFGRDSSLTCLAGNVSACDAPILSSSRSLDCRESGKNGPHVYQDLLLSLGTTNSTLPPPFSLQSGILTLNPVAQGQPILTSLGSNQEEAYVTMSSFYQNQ
Procedure: PE-conjugated anti-human Fc secondary antibody were used to detect the fusion molecules that bound to the IL7R of CD4⁺ T cells by FACS. […] For ligation-mediated receptor internalization assay, human primary CD4⁺ T cells were cocultured with fusion molecules at 37° C. for 15 mins. PE-cy7-conjugated-anti-CD127 (IL7Ra) antibody was used to detect the surface IL7R by FACS.

T1 sequence (Q9NZQ7 19-238 limits assumed): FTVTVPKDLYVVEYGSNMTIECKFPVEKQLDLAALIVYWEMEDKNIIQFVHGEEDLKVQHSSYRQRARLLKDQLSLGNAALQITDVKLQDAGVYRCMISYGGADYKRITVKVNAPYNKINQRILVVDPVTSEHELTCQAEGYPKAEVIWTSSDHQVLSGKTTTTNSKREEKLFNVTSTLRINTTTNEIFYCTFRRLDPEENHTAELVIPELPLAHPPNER

- Kd [1]: 2.09 nM
- koff [1]: 0.000178 s⁻¹
- kon [1]: 85000 M⁻¹ s⁻¹
- EC50 [2]: 7.99 nM
- EC50 [3]: 35 nM
B1: Anti-PDL1 mAb (antibody, V domains shown)
VH: EVQLVESGGGLVQPGGSLRLSCAASGFTFSSYDMSWVRQAPGKSLEWVATISDAGGYIYYSDSVKGRFTISRDNAKNSLYLQMNSLRDEDTAVYICAREFGKRYALDYWGQGTTVTVSS
VL: DIQMTQSPSSLSASVGDRVTITCKASQDVTPAVAWYQQKPGKAPKLLIYSTSSRYTGVPSRFSGSGSGTDFTFTISSLQPEDIATYYCQQHYTTPLTFGQGTKLEIK
notes: also called anti-PDL1 monoclonal antibody; anti-PDL1 antibody
